# Experimental data reported in article PMC9482650, “Quantitative fragmentomics allow affinity mapping of interactomes” (Nature Communications, 2022).
# T1: APBA2_1, Q99767
# T1 sequence (Q99767 563-664, limits assumed, looked up): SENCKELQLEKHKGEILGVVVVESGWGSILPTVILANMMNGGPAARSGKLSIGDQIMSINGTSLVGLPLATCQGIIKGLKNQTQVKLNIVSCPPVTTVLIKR
# T2: MPP7, Q5T2T1
# T2 sequence (Q5T2T1 134-230, limits assumed, looked up): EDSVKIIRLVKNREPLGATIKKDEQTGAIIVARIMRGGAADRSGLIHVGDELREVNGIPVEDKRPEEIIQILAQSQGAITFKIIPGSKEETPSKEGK
# T3: RAPGEF6, Q8TEU7
# T3 sequence (Q8TEU7 525-625, limits assumed, looked up): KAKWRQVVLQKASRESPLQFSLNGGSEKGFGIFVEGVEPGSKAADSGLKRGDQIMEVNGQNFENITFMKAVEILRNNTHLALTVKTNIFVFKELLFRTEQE
# T4: LRRC7, Q96NW7
# T4 sequence (Q96NW7 1440-1537, limits assumed, looked up): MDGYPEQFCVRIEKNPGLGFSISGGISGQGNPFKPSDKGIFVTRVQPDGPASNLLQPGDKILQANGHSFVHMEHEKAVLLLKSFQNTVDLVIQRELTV
# T5: DVL3, Q92997
# T5 sequence (Q92997 244-331, limits assumed, looked up): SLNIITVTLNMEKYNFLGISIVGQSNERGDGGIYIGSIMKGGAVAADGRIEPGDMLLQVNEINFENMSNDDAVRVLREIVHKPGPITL
# T6: MPP6, Q9NZW5
# T6 sequence (Q9NZW5 125-219, limits assumed, looked up): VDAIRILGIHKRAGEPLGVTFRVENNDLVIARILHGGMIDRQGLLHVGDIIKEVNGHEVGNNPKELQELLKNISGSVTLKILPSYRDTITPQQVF
# T7: PDZD2_2, O15018
# T7 sequence (O15018 329-429, limits assumed, looked up): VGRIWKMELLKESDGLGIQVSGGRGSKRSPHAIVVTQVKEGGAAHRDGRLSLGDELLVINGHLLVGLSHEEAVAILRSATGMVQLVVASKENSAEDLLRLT
# T8: APBA3_1, O96018
# T8 sequence (O96018 389-490, limits assumed, looked up): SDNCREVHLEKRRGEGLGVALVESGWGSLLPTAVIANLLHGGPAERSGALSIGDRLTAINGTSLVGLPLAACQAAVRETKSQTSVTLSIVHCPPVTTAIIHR
# T9: PTPN13_1, Q12923
# T9 sequence (Q12923 1088-1188, limits assumed, looked up): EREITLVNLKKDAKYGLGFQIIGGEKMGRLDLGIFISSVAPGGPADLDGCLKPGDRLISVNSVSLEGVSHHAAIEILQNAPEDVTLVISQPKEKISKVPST
# T10: ARHGEF11, O15085
# T10 sequence (O15085 42-136, limits assumed, looked up): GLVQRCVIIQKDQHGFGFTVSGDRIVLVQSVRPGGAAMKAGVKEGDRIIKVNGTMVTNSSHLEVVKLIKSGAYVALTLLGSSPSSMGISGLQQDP
# T11: SNTA1, Q13424
# T11 sequence (Q13424 82-180, limits assumed, looked up): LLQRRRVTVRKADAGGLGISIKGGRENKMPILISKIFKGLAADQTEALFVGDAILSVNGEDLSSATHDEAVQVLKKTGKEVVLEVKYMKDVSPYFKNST
# T12: DLG3_1, Q92796
# T12 sequence (Q92796 125-227, limits assumed, looked up): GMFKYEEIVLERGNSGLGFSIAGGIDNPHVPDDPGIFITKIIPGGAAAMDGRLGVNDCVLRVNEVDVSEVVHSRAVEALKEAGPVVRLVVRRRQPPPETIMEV
# T13: SNTB1, Q13884
# T13 sequence (Q13884 107-205, limits assumed, looked up): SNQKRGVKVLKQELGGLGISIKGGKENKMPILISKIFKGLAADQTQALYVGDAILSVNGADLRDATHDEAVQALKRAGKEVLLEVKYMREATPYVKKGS
# Assays:
# Assay in all cases: holdup assay
# Set-up in all cases: key: below the threshold = too weak to quantify, mostly under pKd 3.1 to 4
# [1] = biological target: T1, APBA2_1, Q99767
# [2] = biological target: DLG2_3, Q15700
# [3] = biological target: SNX27, Q96L92
# [4] = biological target: T2, MPP7, Q5T2T1
# [5] = biological target: IL16_4, Q14005
# Chain of IL16_4, Q14005 (Q14005 1229-1329): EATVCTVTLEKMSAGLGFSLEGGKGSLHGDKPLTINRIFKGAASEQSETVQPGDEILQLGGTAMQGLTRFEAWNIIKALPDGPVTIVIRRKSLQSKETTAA
# [6] = biological target: T3, RAPGEF6, Q8TEU7
# [7] = biological target: T4, LRRC7, Q96NW7
# [8] = biological target: T5, DVL3, Q92997
# [9] = biological target: T6, MPP6, Q9NZW5
# [10] = biological target: FRMPD2_3, Q68DX3
# Chain of FRMPD2_3, Q68DX3 (Q68DX3 1073-1166): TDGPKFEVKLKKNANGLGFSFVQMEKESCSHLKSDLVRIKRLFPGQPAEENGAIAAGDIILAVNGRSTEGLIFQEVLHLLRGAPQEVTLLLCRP
# [11] = biological target: PARD3_3, Q8TEW0
# Chain of PARD3_3, Q8TEW0 (Q8TEW0 582-685): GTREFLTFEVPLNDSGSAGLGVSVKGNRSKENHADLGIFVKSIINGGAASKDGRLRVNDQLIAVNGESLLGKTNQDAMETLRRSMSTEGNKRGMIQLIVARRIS
# [12] = biological target: FRMPD2_1, Q68DX3
# Chain of FRMPD2_1, Q68DX3 (Q68DX3 770-861): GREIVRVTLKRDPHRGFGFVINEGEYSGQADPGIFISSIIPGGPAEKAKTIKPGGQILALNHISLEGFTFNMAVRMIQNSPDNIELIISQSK
# [13] = biological target: HTRA2, O43464
# Chain of HTRA2, O43464 (O43464 355-458): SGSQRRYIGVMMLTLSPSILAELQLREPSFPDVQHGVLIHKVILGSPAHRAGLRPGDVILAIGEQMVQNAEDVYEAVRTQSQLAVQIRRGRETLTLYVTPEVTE
# [14] = biological target: T7, PDZD2_2, O15018
# [15] = biological target: T8, APBA3_1, O96018
# [16] = biological target: T9, PTPN13_1, Q12923
# [17] = biological target: DLG5_1, Q8TDM6
# Chain of DLG5_1, Q8TDM6 (Q8TDM6 617-713): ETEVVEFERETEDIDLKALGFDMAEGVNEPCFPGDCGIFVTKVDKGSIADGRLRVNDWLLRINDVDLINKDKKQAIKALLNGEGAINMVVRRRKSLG
# [18] = biological target: MAGI2_6, Q86UL8
# Chain of MAGI2_6, Q86UL8 (Q86UL8 1141-1229): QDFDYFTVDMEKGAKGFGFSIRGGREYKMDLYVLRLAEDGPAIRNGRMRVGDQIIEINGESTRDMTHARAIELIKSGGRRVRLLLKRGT
# [19] = biological target: T10, ARHGEF11, O15085
# [20] = biological target: GRIP2_6, Q9C0E4
# Chain of GRIP2_6, Q9C0E4 (Q9C0E4 648-740): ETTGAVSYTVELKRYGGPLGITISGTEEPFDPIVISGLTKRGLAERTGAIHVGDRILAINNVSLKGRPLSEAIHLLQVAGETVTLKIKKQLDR
# [21] = biological target: LAP2, Q96RT1
# Chain of LAP2, Q96RT1 (Q96RT1 other isoform, or with tags, fused parts or gaps): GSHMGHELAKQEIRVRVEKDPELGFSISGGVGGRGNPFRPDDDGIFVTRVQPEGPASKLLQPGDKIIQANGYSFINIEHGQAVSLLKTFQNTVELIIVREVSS
# [22] = biological target: AHNAK1, Q09666
# Chain of AHNAK1, Q09666 (Q09666 4-100): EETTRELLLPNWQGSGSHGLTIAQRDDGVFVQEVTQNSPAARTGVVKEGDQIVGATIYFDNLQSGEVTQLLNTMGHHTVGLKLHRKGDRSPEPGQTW
# [23] = biological target: T11, SNTA1, Q13424
# [24] = biological target: T12, DLG3_1, Q92796
# [25] = biological target: T13, SNTB1, Q13884
# [26] = plain residues with an end cap or a label only (N-terminal biotin on a linker: ado-ado)
# [27] = plain residues with an end cap or a label only (N-terminal biotin on a linker: ttds)
binder,measurement,setting,value
"GFGEERESIL [KIDINS220, Q9ULH0]",pKd,[1]; [26],below the threshold
same,pKd,[2]; [26],below the threshold
same,pKd,[3]; [26],5.59
same,pKd,[4]; [26],below the threshold
same,pKd,[5]; [26],3.74
same,pKd,[6]; [26],below the threshold
same,pKd,[7]; [26],below the threshold
same,pKd,[8]; [26],below the threshold
same,pKd,[9]; [26],below the threshold
same,pKd,[10]; [26],below the threshold
same,pKd,[11]; [26],4.35
same,pKd,[12]; [26],below the threshold
same,pKd,[13]; [26],below the threshold
same,pKd,[14]; [26],4.65
same,pKd,[15]; [26],below the threshold
same,pKd,[16]; [26],below the threshold
same,pKd,[17]; [26],below the threshold
same,pKd,[18]; [26],3.67
same,pKd,[19]; [26],3.8
same,pKd,[20]; [26],below the threshold
same,pKd,[21]; [26],below the threshold
same,pKd,[22]; [26],below the threshold
same,pKd,[23]; [26],5.26
same,pKd,[24]; [26],below the threshold
same,pKd,[25]; [26],5.4
"VNKVWDQSSV [CIT, O14578]",pKd,[1]; [27],below the threshold
same,pKd,[2]; [27],3.71
same,pKd,[3]; [27],5.11
same,pKd,[4]; [27],below the threshold
same,pKd,[5]; [27],below the threshold
same,pKd,[6]; [27],below the threshold
same,pKd,[7]; [27],below the threshold
same,pKd,[8]; [27],below the threshold
same,pKd,[9]; [27],below the threshold
same,pKd,[10]; [27],below the threshold
same,pKd,[11]; [27],below the threshold
same,pKd,[12]; [27],below the threshold
same,pKd,[13]; [27],below the threshold
same,pKd,[14]; [27],4.86
same,pKd,[15]; [27],below the threshold
same,pKd,[16]; [27],below the threshold
same,pKd,[17]; [27],below the threshold
same,pKd,[18]; [27],3.57
same,pKd,[19]; [27],below the threshold
same,pKd,[20]; [27],below the threshold
same,pKd,[21]; [27],4.04
same,pKd,[22]; [27],below the threshold
same,pKd,[23]; [27],below the threshold
same,pKd,[24]; [27],below the threshold
same,pKd,[25]; [27],below the threshold
"SEKHFRETEV [HTLV1-TAX1, P03409]",pKd,[1]; [27],below the threshold
same,pKd,[2]; [27],5.36
same,pKd,[3]; [27],5.72
same,pKd,[4]; [27],below the threshold
same,pKd,[5]; [27],below the threshold
same,pKd,[6]; [27],below the threshold
same,pKd,[7]; [27],4.69
same,pKd,[8]; [27],3.62
same,pKd,[9]; [27],below the threshold
same,pKd,[10]; [27],3.77
same,pKd,[11]; [27],3.71
same,pKd,[12]; [27],3.75
same,pKd,[13]; [27],below the threshold
same,pKd,[14]; [27],4.44
same,pKd,[15]; [27],below the threshold
same,pKd,[16]; [27],below the threshold
same,pKd,[17]; [27],below the threshold
same,pKd,[18]; [27],4.43
same,pKd,[19]; [27],4.22
same,pKd,[20]; [27],below the threshold
same,pKd,[21]; [27],4.99
same,pKd,[22]; [27],3.92
same,pKd,[23]; [27],5.9
same,pKd,[24]; [27],4.58
same,pKd,[25]; [27],6.12
"PKRPFVESNV [TANC2, Q9HCD6]",pKd,[1]; [27],below the threshold
same,pKd,[2]; [27],3.86
same,pKd,[3]; [27],4.8
same,pKd,[4]; [27],below the threshold
same,pKd,[5]; [27],below the threshold
same,pKd,[6]; [27],below the threshold
same,pKd,[7]; [27],4.05
same,pKd,[8]; [27],below the threshold
same,pKd,[9]; [27],below the threshold
same,pKd,[10]; [27],below the threshold
same,pKd,[11]; [27],below the threshold
same,pKd,[12]; [27],below the threshold
same,pKd,[13]; [27],below the threshold
same,pKd,[14]; [27],4.52
same,pKd,[15]; [27],below the threshold
same,pKd,[16]; [27],below the threshold
same,pKd,[17]; [27],below the threshold
same,pKd,[18]; [27],3.76
same,pKd,[19]; [27],below the threshold
same,pKd,[20]; [27],below the threshold
same,pKd,[21]; [27],4.74
same,pKd,[22]; [27],below the threshold
same,pKd,[23]; [27],4.33
same,pKd,[24]; [27],3.82
same,pKd,[25]; [27],4.49
